Patent publication US20190233494A1 (Sanofi, published 2019)
Starred links: 1 amine or outer side, 2 acyl side, 3 side chain; linkers in the order of their positions; H or OH if unused. Non-standard residues stand in square brackets, D forms with d. Groups on a side chain read outwards from the residue. *: point of attachment. TTDS = 4-[3-[2-[2-(3-aminopropoxy)ethoxy]ethoxy]propylamino]-4-oxo-butanoyl; Trp(5-F) = N[C@@H](Cc1c[nH]c2ccc(F)cc12)C(=O)O; Phe(4-F) = N[C@@H](Cc1ccc(F)cc1)C(=O)O; γGlu = O=C(O)[C@H](CCC(=O)[*:2])N[*:1]; Palmitoyl = CCCCCCCCCCCCCCCC(=O)*; αMeF = C[C@](N)(Cc1ccccc1)C(=O)O; Myristoyl = CCCCCCCCCCCCCC(=O)*; Cit = NC(=O)NCCC[C@H](N)C(=O)O; αMeK = C[C@](N)(CCCCN)C(=O)O; hLys = NCCCCC[C@H](N)C(=O)O; AEEA = NCCOCCOCC(=O)O; Aib = CC(C)(N)C(=O)O

Target: T1, RXFP1 receptor (endogenous, on OVCAR5 cells) (UniProt Q9HBX9 1-757, limits assumed)
T1 sequence (looked up): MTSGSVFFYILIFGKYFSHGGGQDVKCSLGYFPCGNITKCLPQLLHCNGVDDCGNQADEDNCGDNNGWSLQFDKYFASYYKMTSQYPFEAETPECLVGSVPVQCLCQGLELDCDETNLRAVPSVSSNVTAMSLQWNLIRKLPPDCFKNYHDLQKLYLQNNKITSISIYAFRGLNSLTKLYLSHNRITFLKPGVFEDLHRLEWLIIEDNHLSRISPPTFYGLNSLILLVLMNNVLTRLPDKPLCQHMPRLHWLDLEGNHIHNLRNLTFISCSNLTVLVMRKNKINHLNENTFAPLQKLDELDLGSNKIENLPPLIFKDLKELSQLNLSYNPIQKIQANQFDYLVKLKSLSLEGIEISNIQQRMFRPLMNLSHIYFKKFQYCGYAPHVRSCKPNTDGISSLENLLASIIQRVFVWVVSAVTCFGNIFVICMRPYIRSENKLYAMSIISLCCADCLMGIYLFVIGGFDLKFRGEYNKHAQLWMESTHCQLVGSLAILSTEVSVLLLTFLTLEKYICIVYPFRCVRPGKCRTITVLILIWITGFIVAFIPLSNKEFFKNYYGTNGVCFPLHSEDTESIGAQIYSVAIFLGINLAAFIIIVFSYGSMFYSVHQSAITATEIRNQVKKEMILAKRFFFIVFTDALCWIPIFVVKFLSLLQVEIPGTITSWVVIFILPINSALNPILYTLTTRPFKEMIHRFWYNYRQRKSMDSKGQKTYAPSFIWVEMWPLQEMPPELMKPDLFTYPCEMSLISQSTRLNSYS
Experiment: cell-based or functional assay

Binder | EC50 (nM), OVCAR 5 cells (cAMP) [nM] | EMax, OVCAR 5 cells (cAMP) [%]
Ac-LEGREKVRAK(Ac)I[Aib][Aib]EGK([TTDS-TTDS-TTDS-γGlu-γGlu-γGlu-Palmitoyl])STFS[Aib]RAK(Ac)-NH2 [peptide of SEQ ID NO: 2] | 2.4 | 99
Ac-LEGREKVRAK(Ac)I[Aib]IEGK([TTDS-TTDS-TTDS-γGlu-γGlu-γGlu-Palmitoyl])STFS[αMeK]RAK(Ac)-NH2 [peptide of SEQ ID NO: 84] | 0.1 | 95
Ac-LEGREKVR[Aib]K(Ac)I[Aib][Aib]EGK([TTDS-TTDS-TTDS-γGlu-γGlu-γGlu-Palmitoyl])STWS[Aib]RAK(Ac)-NH2 [peptide of SEQ ID NO: 82] | 0.54 | 95
Ac-LEGREKVRAK(Ac)I[Aib][Aib]EGK([TTDS-TTDS-TTDS-γGlu-γGlu-γGlu-γGlu-Myristoyl])STFS[αMeK]RAK-NH2 [peptide of SEQ ID NO: 97] | 0.29 | 98
Ac-LEGREKVRAK(Ac)I[Aib][Aib]EGK([TTDS-TTDS-TTDS-γGlu-γGlu-γGlu-Palmitoyl])STFVRRAK(Ac)-NH2 [peptide of SEQ ID NO: 94] | 1.74 | 88
Ac-[Aib]EGREKVRAK(Ac)I[Aib]IEGK([TTDS-TTDS-TTDS-γGlu-γGlu-γGlu-Palmitoyl])STFS[αMeK]RAK(Ac)-NH2 [peptide of SEQ ID NO: 86] | 0.3 | 95
Ac-LEGREKVRAK(Ac)I[Aib][Aib]EGK([TTDS-TTDS-TTDS-γGlu-γGlu-γGlu-Palmitoyl])STFS[hLys]RAK(Ac)-NH2 [peptide of SEQ ID NO: 88] | 0.17 | 96
Ac-LEGREKVRAK(Ac)I[Aib][Aib]EGK([TTDS-TTDS-TTDS-γGlu-γGlu-γGlu-Myristoyl])STFS[αMeK]RAK-NH2 [peptide of SEQ ID NO: 96] | 0.88 | 92
Ac-LEGRERVRAK(Ac)I[Aib][Aib]EGK([TTDS-TTDS-TTDS-γGlu-γGlu-γGlu-Palmitoyl])ST[Phe(4-F)]S[Aib]RRK(Ac)-NH2 [peptide of SEQ ID NO: 91] | 0.09 | 97
Ac-LEGREKVRAK(Ac)I[Aib][Aib]EGK([TTDS-TTDS-TTDS-γGlu-γGlu-γGlu-Palmitoyl])STF[dS]KRAK(Ac)-NH2 [peptide of SEQ ID NO: 14] | 3.2 | 90
Ac-LEGREKVRAK(Ac)I[Aib][Aib]EGK([TTDS-TTDS-TTDS-γGlu-γGlu-γGlu-Palmitoyl])STWS[αMeK]RAK(Ac)-NH2 [peptide of SEQ ID NO: 11] | 0.83 | 93
Ac-LEGRERVRAK(Ac)I[Aib][Aib]EGK([TTDS-TTDS-TTDS-γGlu-γGlu-γGlu-Palmitoyl])ST[Trp(5-F)]S[Aib]RRK(Ac)-NH2 [peptide of SEQ ID NO: 92] | 0.1 | 99
Ac-LEGREKVRAK(Ac)I[Aib][Aib]EGK([TTDS-TTDS-TTDS-γGlu-γGlu-γGlu-Palmitoyl])STFTRRAK(Ac)-NH2 [peptide of SEQ ID NO: 93] | 0.77 | 86
Ac-LEGRERVR[Aib]K(Ac)I[Aib][Aib]EGK([TTDS-TTDS-TTDS-γGlu-γGlu-γGlu-Palmitoyl])STWS[Aib]RRK(Ac)-NH2 [peptide of SEQ ID NO: 85] | 0.3 | 92
Ac-LEGREKVRAK(Ac)I[Aib][Aib]EGK([TTDS-TTDS-TTDS-γGlu-γGlu-γGlu-Palmitoyl])SKWS[Aib]RKK(Ac)-NH2 [peptide of SEQ ID NO: 83] | 0.25 | 94
Ac-LEGREKVRAK(Ac)I[Aib][Aib]EGK([TTDS-TTDS-γGlu-γGlu-γGlu-Palmitoyl])STWS[dK]RAK(Ac)-NH2 [peptide of SEQ ID NO: 17] | 4.6 | 91
Ac-LEGREKVRAK(Ac)I[Aib][Aib]EGK([TTDS-TTDS-TTDS-γGlu-γGlu-γGlu-Palmitoyl])STF[Aib]KRAK(Ac)-NH2 [peptide of SEQ ID NO: 15] | 2.1 | 85
Ac-LEGREKVRAK(Ac)I[Aib][Aib]EGK([TTDS-TTDS-TTDS-γGlu-γGlu-γGlu-Palmitoyl])STFSRRAK(Ac)-NH2 [peptide of SEQ ID NO: 87] | 0.1 | 96
Ac-LEGREKVRAK(Ac)I[Aib][Aib]EGK([TTDS-TTDS-TTDS-γGlu-γGlu-γGlu-Myristoyl])STFS[αMeK]RAK(Ac)-NH2 [peptide of SEQ ID NO: 95] | 1.8 | 91
Ac-LEGREKVRAK(Ac)I[Aib][Aib]EGK([AEEA-AEEA-AEEA-AEEA-γGlu-γGlu-γGlu-Palmitoyl])STFS[αMeK]RAK(Ac)-NH2 (SMILES CCCCCCCCCCCCCCCC(=O)N[C@@H](CCC(=O)N[C@@H](CCC(=O)N[C@@H](CCC(=O)NCCOCCOCC(=O)NCCOCCOCC(=O)NCCOCCOCC(=O)NCCOCCOCC(=O)NCCCC[C@H](NC(=O)CNC(=O)[C@H](CCC(=O)O)NC(=O)C(C)(C)NC(=O)C(C)(C)NC(=O)[C@@H](NC(=O)[C@H](CCCCNC(C)=O)NC(=O)[C@H](C)NC(=O)[C@H](CCCNC(=N)N)NC(=O)[C@@H](NC(=O)[C@H](CCCCN)NC(=O)[C@H](CCC(=O)O)NC(=O)[C@H](CCCNC(=N)N)NC(=O)CNC(=O)[C@H](CCC(=O)O)NC(=O)[C@H](CC(C)C)NC(C)=O)C(C)C)[C@@H](C)CC)C(=O)N[C@@H](CO)C(=O)N[C@H](C(=O)N[C@@H](Cc1ccccc1)C(=O)N[C@@H](CO)C(=O)N[C@@](C)(CCCCN)C(=O)N[C@@H](CCCNC(=N)N)C(=O)N[C@@H](C)C(=O)N[C@@H](CCCCNC(C)=O)C(N)=O)[C@@H](C)O)C(=O)O)C(=O)O)C(=O)O) [peptide of SEQ ID NO: 8] | 1.86 | 92
Ac-LEGREKVRAK(Ac)I[Aib][Aib]EGK([TTDS-TTDS-γGlu-γGlu-γGlu-γGlu-Palmitoyl])STFS[αMeK]RAK(Ac)-NH2 [peptide of SEQ ID NO: 10] | 0.79 | 95
Ac-LEGREKVRAK(Ac)I[Aib][Aib]EGK([TTDS-TTDS-γGlu-γGlu-Palmitoyl])STFS[αMeK]RAK(Ac)-NH2 [peptide of SEQ ID NO: 9] | 0.7 | 93
Ac-LEGREKVRAK(Ac)I[Aib][Aib]EGK([TTDS-TTDS-γGlu-γGlu-γGlu-Palmitoyl])STFS[dK]RAK(Ac)-NH2 [peptide of SEQ ID NO: 16] | 6.8 | 88
Ac-LEGREKVRAK(Ac)I[Aib][Aib]EGK([TTDS-TTDS-TTDS-γGlu-γGlu-γGlu-Palmitoyl])STFSKRAK(Ac)-NH2 [peptide of SEQ ID NO: 13] | 2.12 | 91
Ac-LEGREKVRAK(Ac)I[Aib][Aib]EGK([TTDS-TTDS-TTDS-γGlu-γGlu-γGlu-Palmitoyl])ST[αMeF]SRRAK(Ac)-NH2 [peptide of SEQ ID NO: 89] | 0.1 | 97
Ac-LEGREKVRAK(Ac)IA[Aib]EGK([TTDS-TTDS-TTDS-γGlu-γGlu-γGlu-Palmitoyl])STFS[αMeK]RAK(Ac)-NH2 [peptide of SEQ ID NO: 90] | 0.14 | 97
Ac-LEGREKVRA[Cit]I[Aib][Aib]EGK([TTDS-TTDS-TTDS-γGlu-γGlu-γGlu-Palmitoyl])STFS[αMeK]RAK(Ac)-NH2 [peptide of SEQ ID NO: 12] | 0.93 | 90
